Results published in publication PMC7954794, “Protein context shapes the specificity of SH3 domain-mediated interactions in vivo” (Nature Communications, 2021).

Key:
Type in all cases: cell-based, Saccharomyces cerevisiae
Hua2 = experiment: Deep mutational scanning of Abp1 SH3, Abp1-Hua2 DHFR-PCA (DMS score); conditions: for hua2sc (DMS score): Frequencies scaled to the synonymous mutation distribution (DMS score), Hua2; for HUA2_MTX2: frequencies normalized to the reference condition, Abp1-Hua2, MTX2
How it was run: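 Sequencing of the genomic SH3 locus before and after two rounds of liquid DHFR-PCA selection (72 h, 30 °C each) gave the score. Mutants covering every codon of the domain were expressed from the native ABP1 locus in diploids carrying DHFR-tagged prey.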

Lsb3 = experiment: Deep mutational scanning of Abp1 SH3, Abp1-Lsb3 DHFR-PCA (DMS score); conditions: for lsb3sc (DMS score): Frequencies scaled to the synonymous mutation distribution (DMS score), Lsb3; for LSB3_MTX2: frequencies normalized to the reference condition, Abp1-Lsb3, MTX2
Procedure: Single site mutation libraries were generated by a PCR-based saturation mutagenesis method[50] as described below. The mutagenesis was carried out on the pUC19 plasmid containing the SH3 domain sequence of ABP1 flanked by its homology arms subsequently used in the CRISPR mediated genomic re-integration. We used oligos containing degenerate nucleotides (NNN) to carry out the mutagenesis at each codon of the domain sequence. In the first step of the two-step PCR procedure (short PCR step), an amplicon was generated with an oligo containing the degenerate codon which is positioned within the domain sequence, and another oligo lying outside Abp1 sequence in the plasmid. Short PCR step was carried out with the following settings: 5 min at 95 °C, 35 cycles: 20 s at 98 °C, 15 s at 60 °C, 30 s at 72 °C, and a final extension of 1 min at 72 °C. The amplicon generated in this step was used as a mega primer in the second step (long PCR step) to amplify the whole plasmid. Long PCR step was carried out with the following settings: 5 min at 95 °C, 22 cycles: 20 s at 98 °C, 15 s at 68 °C, 3 min 30 s at 72 °C, and a final extension of 5 min at 72 °C. The long PCR product was digested for 2 h at 37 °C with DpnI. The digestion product was then transformed into E. coli MC1061 competent cells. In order to obtain most of the 64 possible codons, we recovered ~1000 colonies from each plate to retrieve the plasmid single mutant libraries. Saturation mutagenesis was carried out in a codon-position-wise manner. Mutants at each position were stored separately. Library quality control was assessed by amplifying the purified plasmid DNA preparations by PCR followed by Illumina sequencing as described below. The genomic insertion of the mutant libraries (one library per amino acid position) was performed by targeting the stuffer sequence in the ABP1 SH3-deleted strain as described in the strain construction section. ABP1 SH3-deleted yeast competent cells were co-transformed with pCAS containing the stuffer-specific gRNA and PCR amplified ABP1 SH3 single position mutated libraries from the pUC19 preparations. As for the library generation, ~1000 colonies from each plate were retrieved. Glycerol stocks of yeast cells were kept for each position (58 different stocks corresponding to the 58 amino acid positions of Abp1 SH3). The stocks were also validated by Illumina sequencing (see below).
Liquid DHFR-PCA experiments were performed following the generation of the ABP1 SH3 single position mutated yeast strains and were performed in biological independent duplicates. An overnight culture was started in YPD + NAT by adding the same number of cells from each yeast mutant strain (master pool). Then, the master pool and Hua2-DHFR F[3] or Lsb3-DHFR F[3] preys strains were mixed in YPD (2:1) for mating and incubated for 8 h at 30 °C. Diploid cells were selected the first time by transferring the mixture in a YPD + NAT + HPH (OD 0.5) culture for 16 h at 30 °C. The next day, the first diploid selection was transferred in SC complete pH 6.0 + NAT + HPH at 0.5 OD and the culture was grown for 24 h at 30 °C. The validation of the yeast mutant libraries was done the next day with a fraction of the diploid cells (first DHFR-PCA experiment time point without PCA selection, reference condition S2) by amplifying ABP1 SH3 genomic sequence followed by Illumina sequencing as described in the section below. Following the selection, diploid cells OD was read using a TECAN Infinite F200 Pro, and dilutions to 0.1 OD in PCA selection media without agar in a 50 mL tube was done. Tubes were incubated at 30 °C for 72 h (second-time point of the DHFR-PCA experiment, first PCA selection). A fraction of the cells (5U OD) was collected for Illumina sequencing. The cells from the first PCA step were grown for a second PCA selection step using the same procedures. […]

Hua2 and Lsb3 = experiment: Quadrant classification of Abp1 SH3 variants from DMS scores (Abp1-Hua2 and Abp1-Lsb3 DHFR-PCA); conditions: class by effect on Hua2 and Lsb3 PPIs (Dest. both / Dest. Hua2 / Dest. Lsb3 / Neutral)

Row | Molecule | hua2sc (DMS score) (Hua2) | HUA2_MTX2 (Hua2) | lsb3sc (DMS score) (Lsb3) | LSB3_MTX2 (Lsb3) | quadrant (Hua2 and Lsb3)
1 | ABP1 E13E (protein, UniProt P15891 2-592, looked up, synonymous codon change E13E) Actin-binding protein: ALEPIDYTTHSREIDAEYLKIVRGSDPDTTWLIISPNAKKEYEPESTGSSFHDFLQLFDETKVQYGLARVSPPGSDVEKIIIIGWCPDSAPLKTRASFAANFAAVANNLFKGYHVQVTARDEDDLDENELLMKISNAAGARYSIQTSSKQQGKASTPPVKKSFTPSKSPAPVSKKEPVKTPSPAPAAKISSRVNDNNDDDDWNEPELKERDFDQAPLKPNQSSYKPIGKIDLQKVIAEEKAKEDPRLVQKPTAAGSKIDPSSDIANLKNESKLKRDSEFNSFLGTTKPPSMTESSLKNDDDKVIKGFRNEKSPAQLWAERKAKQNSGNAETKAEAPKPEVPEDEPEGEPDVKDLKSKFEGLAASEKEEEEMENKFAPPPKKSEPTIISPKPFSKPQEPVKAEEAEQPKTDYKKIGNPLPGMHIEADNEEEPEENDDDWDDDEDEAAQPPLPSRNVASGAPVQKEEPEQEEIAPSLPSRNSIPAPKQEEAPEQAPEEEIEEEAEEAAPQLPSRSSAAPPPPPRRATPEKKPKENPWATAEYDYDAAEDNELTFVENDKIINIEFVDDDWWLGELEKDGSKGLFPSNYVSLGN | -0.2784 | 1.334 | -0.3311 | 1.169 | Neutral
2 | ABP1 N15N (protein, UniProt P15891 2-592, looked up, synonymous codon change N15N) Actin-binding protein: ALEPIDYTTHSREIDAEYLKIVRGSDPDTTWLIISPNAKKEYEPESTGSSFHDFLQLFDETKVQYGLARVSPPGSDVEKIIIIGWCPDSAPLKTRASFAANFAAVANNLFKGYHVQVTARDEDDLDENELLMKISNAAGARYSIQTSSKQQGKASTPPVKKSFTPSKSPAPVSKKEPVKTPSPAPAAKISSRVNDNNDDDDWNEPELKERDFDQAPLKPNQSSYKPIGKIDLQKVIAEEKAKEDPRLVQKPTAAGSKIDPSSDIANLKNESKLKRDSEFNSFLGTTKPPSMTESSLKNDDDKVIKGFRNEKSPAQLWAERKAKQNSGNAETKAEAPKPEVPEDEPEGEPDVKDLKSKFEGLAASEKEEEEMENKFAPPPKKSEPTIISPKPFSKPQEPVKAEEAEQPKTDYKKIGNPLPGMHIEADNEEEPEENDDDWDDDEDEAAQPPLPSRNVASGAPVQKEEPEQEEIAPSLPSRNSIPAPKQEEAPEQAPEEEIEEEAEEAAPQLPSRSSAAPPPPPRRATPEKKPKENPWATAEYDYDAAEDNELTFVENDKIINIEFVDDDWWLGELEKDGSKGLFPSNYVSLGN | -0.2193 | 1.393 | 0.1386 | 1.639 | Neutral
3 | ABP1 E16E (protein, UniProt P15891 2-592, looked up, synonymous codon change E16E) Actin-binding protein: ALEPIDYTTHSREIDAEYLKIVRGSDPDTTWLIISPNAKKEYEPESTGSSFHDFLQLFDETKVQYGLARVSPPGSDVEKIIIIGWCPDSAPLKTRASFAANFAAVANNLFKGYHVQVTARDEDDLDENELLMKISNAAGARYSIQTSSKQQGKASTPPVKKSFTPSKSPAPVSKKEPVKTPSPAPAAKISSRVNDNNDDDDWNEPELKERDFDQAPLKPNQSSYKPIGKIDLQKVIAEEKAKEDPRLVQKPTAAGSKIDPSSDIANLKNESKLKRDSEFNSFLGTTKPPSMTESSLKNDDDKVIKGFRNEKSPAQLWAERKAKQNSGNAETKAEAPKPEVPEDEPEGEPDVKDLKSKFEGLAASEKEEEEMENKFAPPPKKSEPTIISPKPFSKPQEPVKAEEAEQPKTDYKKIGNPLPGMHIEADNEEEPEENDDDWDDDEDEAAQPPLPSRNVASGAPVQKEEPEQEEIAPSLPSRNSIPAPKQEEAPEQAPEEEIEEEAEEAAPQLPSRSSAAPPPPPRRATPEKKPKENPWATAEYDYDAAEDNELTFVENDKIINIEFVDDDWWLGELEKDGSKGLFPSNYVSLGN | 0.3666 | 1.979 | 0.1832 | 1.684 | Neutral
4 | ABP1 D14D (protein, UniProt P15891 2-592, looked up, synonymous codon change D14D) Actin-binding protein: ALEPIDYTTHSREIDAEYLKIVRGSDPDTTWLIISPNAKKEYEPESTGSSFHDFLQLFDETKVQYGLARVSPPGSDVEKIIIIGWCPDSAPLKTRASFAANFAAVANNLFKGYHVQVTARDEDDLDENELLMKISNAAGARYSIQTSSKQQGKASTPPVKKSFTPSKSPAPVSKKEPVKTPSPAPAAKISSRVNDNNDDDDWNEPELKERDFDQAPLKPNQSSYKPIGKIDLQKVIAEEKAKEDPRLVQKPTAAGSKIDPSSDIANLKNESKLKRDSEFNSFLGTTKPPSMTESSLKNDDDKVIKGFRNEKSPAQLWAERKAKQNSGNAETKAEAPKPEVPEDEPEGEPDVKDLKSKFEGLAASEKEEEEMENKFAPPPKKSEPTIISPKPFSKPQEPVKAEEAEQPKTDYKKIGNPLPGMHIEADNEEEPEENDDDWDDDEDEAAQPPLPSRNVASGAPVQKEEPEQEEIAPSLPSRNSIPAPKQEEAPEQAPEEEIEEEAEEAAPQLPSRSSAAPPPPPRRATPEKKPKENPWATAEYDYDAAEDNELTFVENDKIINIEFVDDDWWLGELEKDGSKGLFPSNYVSLGN | 0.002961 | 1.616 | -0.6602 | 0.8401 | Neutral
5 | ABP1 L17L (protein, UniProt P15891 2-592, looked up, synonymous codon change L17L in SH3) Actin-binding protein: ALEPIDYTTHSREIDAEYLKIVRGSDPDTTWLIISPNAKKEYEPESTGSSFHDFLQLFDETKVQYGLARVSPPGSDVEKIIIIGWCPDSAPLKTRASFAANFAAVANNLFKGYHVQVTARDEDDLDENELLMKISNAAGARYSIQTSSKQQGKASTPPVKKSFTPSKSPAPVSKKEPVKTPSPAPAAKISSRVNDNNDDDDWNEPELKERDFDQAPLKPNQSSYKPIGKIDLQKVIAEEKAKEDPRLVQKPTAAGSKIDPSSDIANLKNESKLKRDSEFNSFLGTTKPPSMTESSLKNDDDKVIKGFRNEKSPAQLWAERKAKQNSGNAETKAEAPKPEVPEDEPEGEPDVKDLKSKFEGLAASEKEEEEMENKFAPPPKKSEPTIISPKPFSKPQEPVKAEEAEQPKTDYKKIGNPLPGMHIEADNEEEPEENDDDWDDDEDEAAQPPLPSRNVASGAPVQKEEPEQEEIAPSLPSRNSIPAPKQEEAPEQAPEEEIEEEAEEAAPQLPSRSSAAPPPPPRRATPEKKPKENPWATAEYDYDAAEDNELTFVENDKIINIEFVDDDWWLGELEKDGSKGLFPSNYVSLGN | -0.5458 | 1.067 | -0.4377 | 1.063 | Neutral
